The results in this text go back to patent US20260258111A1.

The test deals with WT. Put plainly: flow cytometry of CHO cells displaying the WT truncated domain, stained with labelled TRAIL; panel stands above the 2 ug/mL panel, its own TRAIL concentration is not labelled. For orientation: Flow cytometry measures light scatter and fluorescence of single cells or particles in a stream.
Chain of WT (chain, as listed by the source limits assumed, form in doubt): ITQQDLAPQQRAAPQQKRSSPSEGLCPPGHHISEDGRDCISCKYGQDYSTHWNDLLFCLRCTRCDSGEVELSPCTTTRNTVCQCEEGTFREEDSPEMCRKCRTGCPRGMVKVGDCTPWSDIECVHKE

Regarding “APC-TRAIL (from UniProt P50591 114-281) (ligand)”, the APC-A, SSC-A subset (percent of cells in the gate) was found to be 3.84%.
